Numbering of substitutions follows the chain as printed. In names and notes the source's numbering stands.
B1: hnRNPA1 wild-type (full-length) (natural protein)
chain: MSKSESPKEPEQLRKLFIGGLSFETTDESLRSHFEQWGTLTDCVVMRDPNTKRSRGFGFVTYATVEEVDAAMNARPHKVDGRVVEPKRAVSREDSQRPGAHLTVKKIFVGGIKEDTEEHHLRDYFEQYGKIEVIEIMTDRGSGKKRGFAFVTFDDHDSVDKIVIQKYHTVNGHNCEVRKALSKQEMASASSSQRGRSGSGNFGGGRGGGFGGNDNFGRGGNFSGRGGFGGSRGGGGYGGSGDGYNGFGNDGSNFGGGGSYNDFGNYNNQSSNFGPMKGGNFGGRSSGPYGGGGQYFAKPRNQGGYGGSSSSSSYGSGRRF
B2: hnRNPA1-D262N (full-length) (natural protein)
chain: B1 chain with D262N
B3: hnRNPA2 wild-type (full-length) (natural protein)
chain: MEREKEQFRKLFIGGLSFETTEESLRNYYEQWGKLTDCVVMRDPASKRSRGFGFVTFSSMAEVDAAMAARPHSIDGRVVEPKRAVAREESGKPGAHVTVKKLFVGGIKEDTEEHHLRDYFEEYGKIDTIEIITDRQSGKKRGFGFVTFDDHDPVDKIVLQKYHTINGHNAEVRKALSRQEMQEVQSSRSGRGGNFGFGDSRGGGGNFGPGPGSNFRGGSDGYGSGRGFGDGYNGYGGGPGGGNFGGSPGYGGGRGGYGGGGPGYGNQGGGYGGGYDNYGGGNYGSGNYNDFGNYNQQPSNYGPMKSGNFGGSRNMGGPYGGGNYGPGGSGGSGGYGGRSRY

Assays:
[1] = biological target: the molecule itself; assay: thioflavin-T fluorescence + electron microscopy
[2] = biological target: hnRNPA1-D262V (full-length) (human, UniProt P09651-2 1-320, D262V); assay: cross-seeded fibrillization, sedimentation analysis
[3] = biological target: B2; assay: as above
[4] = biological target: the molecule itself; assay: seeded fibrillization, sedimentation analysis
[5] = biological target: hnRNPA2 D290V (full-length) (human, UniProt P22626-2 1-341, D290V); assay: cross-seeded fibrillization, sedimentation analysis

Binder: NYNVFG [A2 D290V hexapeptide (NYNVFG)]
- binding result [1]: binds

Binder: B1
- binding result [2]: binds
- binding result [3]: binds

Binder: B2
- binding result [4]: binds

Binder: B3
- binding result [5]: binds
